The numbers were not newly measured in paper PMC7619008, which cites them from elsewhere.

pKd: −log10 of the molar value.

This data set deals with substance P (Rattus norvegicus) (UniProt P06767).
UniProt P06767, sequence (P06767 whole entry, looked up): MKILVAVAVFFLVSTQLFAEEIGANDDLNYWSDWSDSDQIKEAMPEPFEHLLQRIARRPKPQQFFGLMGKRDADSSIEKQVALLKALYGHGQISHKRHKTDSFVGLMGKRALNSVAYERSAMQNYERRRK

For NK1 receptor (from UniProt P14600), the pKd (commonly the negative decadic logarithm of the Kd, by convention in mol/L) was 8.52.
